This experiment concerns the target SpyCatcher003-mi3 VLP.

“And” between values parts separate entries of the source, which are not always exact repeats. Equal entries are not always repeated.

A word on the stoichiometry N: it is a count of units in the complex or per binding partner. As to “SpyTag-RBD (from UniProt P0DTC2 331-529) (domain or fragment)”, the display efficiency was 93%; the display efficiency (1:1 molar ratio) was 64%; the stoichiometry N was 56 RBDs per VLP and 38 RBD per VLP.

For the origin of these results see publication PMC7822889.
